# Source: the supplement of paper PMC10126150
# ± gives the standard deviation of the averaged measurements.
# Tested on: ATP
# Experiment: switch fluorescence ratio, 500 uM ATP over buffer (Cy3 cluster intensity, sum of 5 cycles each) (fold (ratio)); higher = stronger signal-on switching upon ATP binding; sequences stand for … in TCGTCGGCAGCGTCAGATGTGTATAAGAGACAGTTTTTTTTTTTTTTTTTTTTTTTTT…TC
# Conditions: aptamer strand: ATP DNA aptamer (quencher-CACCTGGGGGAGTATTGCGGAGGAAGG + anchor), 100 nM annealed; ATP concentration: 500 uM
# How it was run: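 Cy3-labelled switching-strand clusters on a modified Illumina MiSeq flow-cell were annealed to 100 nM quencher-labelled ATP aptamer, imaged in selection buffer, then imaged after 15 min with 500 uM ATP at 22 °C. Five buffer/ATP cycles ran, with NaOH stripping and re-annealing between them. The fluorescence ratio is summed target-cycle over summed buffer-cycle Cy3 intensity per cluster, averaged per switch-domain sequence. Clusters outside 100-1000 RFU were excluded.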
# 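Also: ATP exposure 15 min at 22 °C before imaging.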
row,Sequence,switch fluorescence ratio
1,ATTGTGGGTC,1.04 ± 0.02
2,TTCTTTCCGT,1.06 ± 0.026
3,AAATTGCTGC,1.01 ± 0.036
4,AAGGTCGGCC,0.966 ± 0.017
5,GGTATAGTAG,0.99304 ± 0.00031
6,CTTGACGCCG,1.09 ± 0.13
7,CGTATTAGAG,1.01 ± 0.048
8,TCCTTTTAAT,1.045 ± 0.0012
9,AATTGCGTGG,0.988 ± 0.017
10,GAAGCGTTGG,1.02 ± 0.0032
11,AGAGATATGA,1.0142 ± 0.00072
12,GACGCTAAAG,1.08 ± 0.029
13,AGAAGGTCGG,1.01 ± 0.036
14,TTCGGCAGTA,1 ± 0.025
15,TGCAGTAGCG,0.9936 ± 0.0051
16,AGTTTGTTCC,1.02 ± 0.047
17,CTGAATGCGT,0.9844 ± 0.0084
18,CAGGGTCGGC,0.993 ± 0.035
19,TCGTCGGTGG,1 ± 0.011
20,TTTGACCTGG,0.981 ± 0.043
21,TAAAAGGACG,1.09 ± 0.024
22,AGCAGAGAAA,0.982 ± 0.046
23,CATTTTTACG,1.01 ± 0.026
24,ATTCCTAACA,1.008 ± 0.0089
25,ATTTGGTACC,0.977 ± 0.043
26,CCCGAAGTCT,1.05 ± 0.012

row,Sequence,switch fluorescence ratio
1,TTCTATATAT,1.01 ± 0.035
2,ACTTAATTTG,1 ± 0.044
3,CGTTTCGTCT,1.05 ± 0.024
4,CCTTTGTTTT,1.05 ± 0.091
5,CGGTTTTATC,1.01 ± 0.034
6,TTAAAGGGTT,1.04 ± 0.12
7,CTTTATGCTG,1.05 ± 0.047
8,ATGTTCAAGA,1.01 ± 0.015
9,TCGTAGGCAT,1.004 ± 0.0036
10,CGTCGGGGGA,1.01 ± 0.027
11,AACGTTGGAC,1.1 ± 0.029
12,CTAGAAGGGA,0.9965 ± 0.0049
13,AGGTGGGGGG,1.01 ± 0.043
14,GGTTTTGCGG,0.997 ± 0.029
15,TTACTTTGAA,1.01 ± 0.029
16,TACCTATTTT,1.035 ± 0.0014
17,GGGGGGTGAC,1 ± 0.035
18,GTTGGGGTAA,0.9927 ± 0.0067
19,ACTTTGCATT,1.19 ± 0.038
20,ATGTTTGAGG,0.989 ± 0.029
21,ACGAAAATTA,1.12 ± 0.14
22,ACCTAGTGGG,1.005 ± 0.0087
23,TTTAAAGCTG,1.06 ± 0.064
24,CCTGCATTTT,1.3 ± 0.33
25,GGTGGGGCGT,1 ± 0.017
26,GGGTGTAGGA,1.03 ± 0.065

row,Sequence,switch fluorescence ratio
1,GGCGGGTCGG,0.972 ± 0.029
2,GCAGTCAAGC,1.08 ± 0.011
3,TAGGACGAGG,1.02 ± 0.021
4,TTTCACAGCG,1.01 ± 0.011
5,TTTTTACAAT,1.01 ± 0.039
6,AGAGCTGTTG,1.01 ± 0.019
7,ATGTTTGTCT,0.97 ± 0.039
8,CATAAACGCG,1.003 ± 0.0088
9,CGTCGGGGGC,1.005 ± 0.0096
10,ACGCGGTA,1.02 ± 0.058
11,AGGGGCATGG,0.998 ± 0.04
12,GTTGGGTACT,0.998 ± 0.037
13,GCGGTTCGAG,0.9872 ± 0.0033
14,GGGTGGGGGA,1.03 ± 0.028
15,AAGAGTGGGG,1.02 ± 0.049
16,GCTAACACGG,1.048 ± 0.0053
17,AAGGGGCACA,1.0522 ± 0.00079
18,TGCTGGTGCC,1.02 ± 0.013
19,GCGTTGGGAG,1.018 ± 0.0031
20,AATTCAGTGT,1.01 ± 0.025
21,CTGGGTAACG,0.996 ± 0.034
22,CGGCGCTTGG,1.09 ± 0.035
23,AGGCAACTAG,1.05 ± 0.027
24,GGTAGGGAAC,0.975 ± 0.029
